Laboratory results: patent US20250154231A1
Read-outs that look alike come from different tables or passages of the source.

What was measured:
Experiment in all cases: cell-based or functional assay
[1] = biological target: SARS-CoV-2 spike (S) protein, synthetic variant "BA.4+all"
[2] = biological target: SARS-CoV-2 spike (S) protein, Omicron BA.2 + N460K (SARS-CoV-2) (UniProt P0DTC2)
[3] = biological target: SARS-CoV-2 spike (S) protein, Omicron BA.2 + D339H (SARS-CoV-2) (UniProt P0DTC2)
[4] = biological target: SARS-CoV-2 spike (S) protein, Omicron BA.2 + G446S (SARS-CoV-2) (UniProt P0DTC2)
[5] = biological target: SARS-CoV-2 spike (S) protein, Omicron BA.2 + N460K (SARS-CoV-2) (UniProt P0DTC2); remark: listed apart in the source
[6] = biological target: SARS-CoV-2 Omicron BA.1 spike (S) protein, pseudovirus construct (SARS-CoV-2) (UniProt P0DTC2)
[7] = biological target: SARS-CoV-2 Omicron BA.3 spike (S) protein, pseudovirus construct (SARS-CoV-2) (UniProt P0DTC2)
[8] = biological target: SARS-CoV-2 Victoria spike (S) protein (SARS-CoV-2) (UniProt P0DTC2)
[9] = biological target: SARS-CoV-2 Omicron BA.1.1 spike (S) protein, pseudovirus construct (SARS-CoV-2) (UniProt P0DTC2)
[10] = biological target: SARS-CoV-2 Omicron BA.2 spike (S) protein, pseudovirus construct (SARS-CoV-2) (UniProt P0DTC2)

Omi-32 (antibody), sequence (VH): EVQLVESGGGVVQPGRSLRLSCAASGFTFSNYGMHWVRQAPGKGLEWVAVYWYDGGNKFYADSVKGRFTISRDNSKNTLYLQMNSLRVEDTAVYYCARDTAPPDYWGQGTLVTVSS
Omi-32 (antibody), sequence (VL): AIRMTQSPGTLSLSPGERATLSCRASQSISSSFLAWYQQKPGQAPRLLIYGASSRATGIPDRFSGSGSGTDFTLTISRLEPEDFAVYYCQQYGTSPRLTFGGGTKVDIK
Omi-18 (antibody), sequence (VH): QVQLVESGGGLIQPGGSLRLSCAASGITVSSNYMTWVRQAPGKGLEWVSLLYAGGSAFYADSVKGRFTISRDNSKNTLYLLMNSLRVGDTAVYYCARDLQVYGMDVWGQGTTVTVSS
Omi-18 (antibody), sequence (VL): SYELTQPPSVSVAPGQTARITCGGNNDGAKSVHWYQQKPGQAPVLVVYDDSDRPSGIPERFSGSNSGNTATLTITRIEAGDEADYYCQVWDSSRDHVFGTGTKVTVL
Omi-29 (antibody), sequence (VH): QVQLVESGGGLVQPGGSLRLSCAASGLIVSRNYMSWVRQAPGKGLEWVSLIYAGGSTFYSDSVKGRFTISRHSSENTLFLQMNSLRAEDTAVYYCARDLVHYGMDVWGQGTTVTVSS
Omi-29 (antibody), sequence (VL): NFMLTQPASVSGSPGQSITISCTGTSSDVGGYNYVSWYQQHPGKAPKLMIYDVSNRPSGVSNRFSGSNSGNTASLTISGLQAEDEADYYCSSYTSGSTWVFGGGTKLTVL
Omi-12 (antibody), sequence (VH): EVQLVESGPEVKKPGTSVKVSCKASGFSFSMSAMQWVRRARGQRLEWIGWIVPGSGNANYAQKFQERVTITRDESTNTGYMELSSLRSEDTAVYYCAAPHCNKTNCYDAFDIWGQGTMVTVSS
Omi-12 (antibody), sequence (VL): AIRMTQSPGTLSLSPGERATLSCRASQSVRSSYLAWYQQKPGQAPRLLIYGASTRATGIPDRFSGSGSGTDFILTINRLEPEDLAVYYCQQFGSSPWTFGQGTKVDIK
Omi-42 (antibody), sequence (VH): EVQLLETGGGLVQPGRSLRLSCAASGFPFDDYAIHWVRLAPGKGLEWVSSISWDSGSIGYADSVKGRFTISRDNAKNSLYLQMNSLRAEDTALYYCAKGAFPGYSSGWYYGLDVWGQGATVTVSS
Omi-42 (antibody), sequence (VL): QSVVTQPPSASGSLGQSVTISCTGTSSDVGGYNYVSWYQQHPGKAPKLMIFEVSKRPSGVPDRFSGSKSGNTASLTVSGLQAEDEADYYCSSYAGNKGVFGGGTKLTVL
AZD8895 (antibody), sequence (VH): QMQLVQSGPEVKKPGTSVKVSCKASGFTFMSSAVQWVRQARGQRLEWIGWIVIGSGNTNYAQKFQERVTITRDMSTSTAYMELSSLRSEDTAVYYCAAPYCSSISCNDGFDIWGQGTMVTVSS
AZD8895 (antibody), sequence (VL): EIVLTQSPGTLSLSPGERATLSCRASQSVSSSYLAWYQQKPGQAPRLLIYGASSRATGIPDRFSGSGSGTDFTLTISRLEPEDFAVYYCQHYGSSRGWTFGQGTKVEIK

Row | Substance | IC50, pseudoviral neutralization [1] [µg/mL] | pseudovirus neutralisation IC50 [2] [µg/mL] | pseudovirus neutralisation IC50 [3] [µg/mL] | pseudovirus neutralisation IC50 [4] [µg/mL] | pseudovirus neutralisation IC50 [5] [µg/mL] | further results
1 | Omi-29 (antibody) | > 10 | > 10 | 0.018 | 0.024 | > 10 | –
2 | AZD1061 (antibody) | > 10 | – | – | – | – | –
3 | Omi-42 (antibody) | 0.008 | 0.007 | 0.011 | 0.016 | 0.007 | –
4 | Ly-CoV16 (antibody) | > 10 | – | – | – | – | –
5 | REGN10933 (antibody) | > 10 | – | – | – | – | –
6 | S309 (antibody) | 0.584 | – | – | – | – | –
7 | Omi-18 (antibody) | 3.61 | 0.014 | 0.003 | 0.003 | 0.014 | –
8 | Ly-CoV555 (antibody) | > 10 | – | – | – | – | –
9 | REGN10987 (antibody) | > 10 | – | – | – | – | –
10 | Known Antibody E (AZD7442) | – | – | – | – | – | IC50 (ug/ml), pseudovirus [6]: 0.232 µg/mL; IC50 (ug/ml), pseudovirus [7]: 0.065 µg/mL; IC50 (ug/ml), pseudovirus [8]: 0.001 µg/mL; IC50 (ug/ml), pseudovirus [9]: 0.806 µg/mL; IC50 (ug/ml), pseudovirus [10]: 0.008 µg/mL
11 | ADG20 (antibody) | > 10 | – | – | – | – | –
12 | LY-CoV1404 (bebtelovimab) (antibody) | > 10 | – | – | – | – | –
13 | Omi-12 (antibody) | > 10 | 0.011 | 0.003 | 0.003 | 0.011 | –
14 | Omi-03 (antibody) | 0.432 | 0.401 | 0.006 | 0.005 | 0.401 | –
15 | AZD8895 (antibody) | > 10 | – | – | – | – | –
16 | Omi-32 (antibody) | > 10 | 2.34 | 0.683 | 0.33 | 2.34 | –
17 | AZD7442 (a combination of AZD8895 and AZD1061) | > 10 | – | – | – | – | –
